Experimental findings from the nanobody polyreactivity screen of Harvey et al. (2022) are described below.

The data set is described as follows: yeast display, Sf9 membrane polyspecificity reagent, FACS + sequencing; frameworks hold sequencing errors. In a few lines: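 A nanobody's polyreactivity label depends on the gate it was sorted from. Yeast display cells were stained with 10% biotinylated, detergent-solubilized Sf9 membrane reagent for 1 hour at 4 °C, enriched on streptavidin microbeads and sorted by FACS. The low and high (top ~1%) gates were set on anti-HA fluorescence for expression and streptavidin fluorescence for reagent binding.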
“QVQLVESGGGLVQAGGSLRLSCAASGRIFAGYVMGWYRQAPGKERELVAAISGSGASTYYADSVKGRFTISRDNAKNTVFLQMNSLKPEDTAVYYCAADKPGIVSRFDYWGQGTQVTVSS”: the “polyreactivity (PSR sort gate)” value is recorded as “low polyreactivity”.

Take “QVQLVESGGGLVQAGGSLRLSCAASGRIIYGYTMGWYRQAPGKERELVAVISRGGSTNYADSVKGRFSISRDNAKYTVYLQMNSLKPEDTAVYYCAATTKLPRGNYWYYYWGQGTQVTVSS”: the “polyreactivity (PSR sort gate)” value is “high polyreactivity”. The same measure for “QVQLVESGGGLVQAGGSLRLSCAASGSIFARYAMGWYIQAPGKEREFVAAISRSGGSTYYADSVKGRFTISRDNAKNTVYLQMNSLKPEDTAVYYCAARGGTKYDYWGQGTQVTVSS”: “high polyreactivity”; for “QVQLVESGGGLVQAGGSLRLSCAASGSIFVQYAMGWYRQAPGKERELVATISSSGGSTYYADSVKGRFTISRDNAKNTVYLQMNRLKPEDTAVYYCAADWTLDPSYGYYADDYWGQGTQVTVSS”: “low polyreactivity”. The same measure for “QVQLVESGGGLVQAGGSLRLSCAASGNIFVRYTMGWYRQAPGTERELVARITSGGSTYYADSVKGRFTISRDNAKNTVYLQMNSLKPEDTAVYYCAAAIGTRLYSYYYWGQGTQVTVSS”: “high polyreactivity”. “QVQLVESGGGLVQAGGSLRLSCAASGSTSGPYAMGWYRTAPGKERELVATISWIGDRTYYADSVKGRFTISRDNAKNTIYLQMNSLKPEDTAVYYCNDDYRGYANLEGDYWGQGTQVTVSS”: the “polyreactivity (PSR sort gate)” value was “low polyreactivity”.

In the case of “QVQLVESGGGLVQAGGSLRLSCAASGRTFRYAMGWYRQAPGKERELVAAITGSGGSTYYADSVKGRFTISRDNAKNTVYLQMNSLKPEDTAVYYCAAARYDYWGQGTQVTVSS”, the “polyreactivity (PSR sort gate)” value was “high polyreactivity”. The same measure for “QVQLVESGGGLVQAGGSLRLSCAASGFTFKGNTMGWYRQAPGKERELVANITRGGTTYYADSVKGRFTISRDNAKNTVYLQMNSLKPEDTAVYYCAARNWPSRGYNYWGQGTQVTVSS”: “high polyreactivity”; for “QVQLVESGGGLVQAGGSLRLSCAASGRIFSRYAMVWYRQAPGKERELVAAINKSGGSTYYADSVKGRFTISRDNAKNTVYLQMNSLKPEDTAVYYCNAVYYWYKGDYWGQGTQVTVSS”: “high polyreactivity”; for “QVQLVESGGGLVQAGGSLRLSCAASGNIFADYVMGWYRQAPGKERELVAAIDKSGGRTYYADSVKGRFTISRDNAKNTVYLQMNSLKPEDTAVYYCSAYDRYRRMDYWGQGTQVTVSS”: “high polyreactivity”. For “QVHLVESGGGLVQAGGSLRLSCASYGRTFGIYAMGWYRQAPGKERELVATISWRGGSTYYADSVKGRFTISRDNAKNTVYLQMNSLKPEDTAVYYCAAETWYSGYTYDYWGQGTQVTVSS”, the “polyreactivity (PSR sort gate)” value is on record as “low polyreactivity”. “QVQHVESGGGLVQAGGSLRLRCAASGFTFGSYAMGWYRQAPGKERELVASISSAGRTYYADSVKGRITISRDNAKNSVYLQMNSLKPEDTAVYYCNTDARVTIYDYDYWGQGTQVTVSS”: the “polyreactivity (PSR sort gate)” value is “low polyreactivity”.

With “QVQLQESGGGLVQAGGSLRLSCAASGYISQSSVMGWYRQAPGKEREFVASISYGATTYYADSVKGRYTISRDNAKDTVYLQTNSPKPEVTAVYYCAVCVKRGFSHRYWGQGTQVTVSS”, the “polyreactivity (PSR sort gate)” value is on record as “high polyreactivity”.

Regarding “QVQLVESGGGLVQAGVSLRLSCAASGFTFDYYAMGWYRQAPGKERELVAAISWSGGSTYYADSVKGRFTISRDNAKNTVFLQMNSLKPEDTAVYYCAGGRPNPRGRGLAYDFWVQGTQVTVSS”, the “polyreactivity (PSR sort gate)” value is given as “high polyreactivity”. To “QVQLEESGRGLVQAGVSLRLSSAASGNTFVTNTMVWYRQAPGKERELVAAIDSGGDSYYADSVKGRFTISRDNAKNTVYFQMNSLKPEDTAVYYCAAVGDRNYFSNRRYEYWGQGTQVTVSS” belongs “low polyreactivity”; to “QVQLVESGGGLVQAGGSLRLSCAASGFIFYYNARGWYRQAPGKERELVAGISWDGSTYYADSVKGRFTISRDNAKNTVYLQMNSLKPEDTAVYYCAAALLDDYFDLFIFGYWGQGTQVTVSS”, “low polyreactivity”. The same measure for “QVQLVESGGGLVQAGGSLRLSCAASGNIFDRYAMGWYRQAPGKERELVAGITWSGGSTYYADSVKGRFTISRDNAKNTVYLQMNSLKPEDTAVYYCGEANYYWGHGTQVTVSS”: “low polyreactivity”.

“QVQHVESGRGLVQAGGILRLTCAASGRTFEYYAMGWYRQAPGKERELVAAITYSGDSTYYADSVKGRFTISRDNAKNTFYLQMNSLKPEDTAVYYCAADWSSLKDDYWGQGTQVTVSS”: the “polyreactivity (PSR sort gate)” value was “low polyreactivity”.

Regarding “QVQLVESGGGLVQAGGSLRLSCAASGSTFGYYAMGWYRQAPGKERELVAAISVRGGRTYYADSVKGRFTISRDNAKNTVYLQMNSLKPEDTAVYYCATLLPGLGRYGYDYWGHGTQVTVSS”, the “polyreactivity (PSR sort gate)” value was “high polyreactivity”.

As for “QVQLVESAGGLVQAGGSLRLSFAASGSIFYSYAMGSYRKAAGKDRELVADITSSGGSTYYADSVKGRFTISRDNAKNTDYLQMNSLKREDTAVYYCAASSPAFYGLRYNYWGQGTQVTVSS”, the “polyreactivity (PSR sort gate)” value is reported as “low polyreactivity”. The same measure for “QVQLVESGGGLVQAGGSLRLSCAASGFILDYNTMGWYRQAPGKERELVAAISSSGDTTYYADSVKGRFTISRDNAKNTVYLQMNSLKPEDTAVYYCDREYGDGYEYWGQGTQVTVSS”: “low polyreactivity”; for “QVQLVESGGGLVQAGGSLRLSCDASGSIFLVYAMGWYRQAPGKERELVAAITSGGSTNYADSVKGRFTISRDNAKNTVYFQMNSLKPEDTAVYNCAAERGDTAYRKYDYWGQGTQVTVSS”: “low polyreactivity”; for “QVQLVESGGGIVQAGGSLRLSCAASGSTFGYYAMGWYRQAPGKERELVAAISWRGGSTYYADSVKGRFTISRDNAKNTVYLQMNSLKPEDTAVYYCAAQRGGPFPRVVDLYDYWGQGTQVTVSS”: “low polyreactivity”. As for “QVQLVASGGGLDQAGGSLRLSCAASGFPFQENAMGWYRQAPGKERELVAAISYGGGSPSYADSVKGRFTISRDNAKNTVYVQMNSLKPEDNAVYYCAADGGSAYAWYFAELYGYWGQGTQVTVSS”, the “polyreactivity (PSR sort gate)” value was “low polyreactivity”. For “QVQLVESGGGLVQAGGSLRLSCAASGFTFPNYAMGWYRQAPGKERELVAAITSGGGRTNYADSVKGRFTISRDNAKNTVYLQMNSLKPEDTAVYYCAKTRVRGSEFGYWGQGTQVTVSS”, the “polyreactivity (PSR sort gate)” value is “low polyreactivity”. The same measure for “QLQLQESGGGLVQADGSLRLSCAASGSIFGYYYMGWYRQAPGKDRELVATINICGITNYADSVKGRFTISRDNAKNTVYLQMNSLKPDDTAVYYCAADEYAQRDLGYWGQGTQVTVSS”: “low polyreactivity”; for “QVQLVESGGGIVQAGGSLRLSCAATGFTFVYYAMGWYRQEPGKERELVAAISSRGGSTNYADSVKGRFTISRDNAKKTVYLQMNSLKPEDTAVYYCAARANTKKPYYYWGQGTQVTVSS”: “high polyreactivity”.

With “QVQLVESGGGLVQAGGSLRLSCAASGRIVRFYGMGWYRQAPGKERELVAAITDGCGTNYADSVKGRFSISRDNAKNTVYLQMNSLKPEDTAVYYCAADSRFVWSGEYWGQGTQVTVSS”, the “polyreactivity (PSR sort gate)” value is listed as “low polyreactivity”. The same measure for “QVQLVESGGGLVQAGGSLRLSCAASGITFKYNAMGWYRQAPGKERELVAAISSGGNTYYADSVKGRFTISRDNAKNTVYLQMNSLKPEDTAVYYCAAPSYDTLWHDYWGQGTQVTVSS”: “low polyreactivity”. To “QLQLVESGGGLVQAVGSLRLSCAATGSIFYPYAMGWNRQAPGKERELVASISWSGGITYYADSVKGRFTISRDNAKNTVYLQMNSLKPEDTAVYYCAADFSWYLYDYDYWGQGTQVTVSS” belongs “low polyreactivity”; to “QVQLVESGGGLVQAGGSLRLSFAASGYTFWYYAMGWYRQAPGKERELVARISKRGGSTYYADSVKGRFTISRDNAKNTVYLQMNSLKPEDTEVYYCAADTRQQSHSMDYWGQGTQVTVSS”, “low polyreactivity”. The same measure for “QVQLVESGGGLVQAGGSLRLSCAASGSIFVNYAMGWYRQAPGKERELVAAISTGGGRTFYADSVKGRFTISRDNAKNTVYLQMNSLKPEDTAVYYCNNLGRTEYDYWGQGTQVTVSS”: “high polyreactivity”; for “QVQLVESGGGIVQAGGSLRLSCAASGRIFSSYAMGWYRQAPGKERELVAAITRGGSTYYADSVKGRFTISRDNANNTVHLQMNSLKPEDPAVYYCAARPPYRYWFWGNEDYWGQGTQVTVSS”: “high polyreactivity”; for “QVQLVESVGGLVQAGASLRLSCAASGRTFATYAKGWYRQAPGKERELVAAISRSGGSTYYADSVKGRFTISRDNAKNTVYLQMHSLKPEDTAGYYCAARYVRQYYRAEDYWGQGTQVTVSS”: “high polyreactivity”. On to “QVQLVESGGGLVQAGGSLRLSCAASGFIFTRYVMGWYRQAAGKERELVAAISRIGASTYYADSVKGRFTISRDNAKNNFYLQMNCLNPEATAVYYCKVVSGGYCEYDYWGHGTQVTVSS”, for which the “polyreactivity (PSR sort gate)” value is recorded as “high polyreactivity”.

“QVQLVESGGGLVQAGGSLRLSCAASGRTFRSYAMGWYRQAPGKERELVAAISQRGGSTYYADSVKGRFTISRDNAKNTVYLQMNSLKPEDTAVYYCATPVRSGYDYWGQGTQVTVSS”: the “polyreactivity (PSR sort gate)” value is listed as “high polyreactivity”. The same measure for “QVQLVESGGGLVQAGGSLRLSCAASGLIFYDNMGWYRQAPGKERELVAAISSSGGSTSYADSVKGRFTISRDNAKNTVYLQMNSLKPEDTAVYFCAADSYPAYLGFVGFDYWGQGTQVTVSS”: “low polyreactivity”. Turning to “QVQLVESGGGLVQAGGSLRLSCAASGFTFGDYAMYWVRQAPGKGLEWVSSIDSRGGSTYYADSVKGRFTISRDNAKNTVYLQMNSLKPEDTAVYYCAKPGNHRYDYWGQGTQVTVSS”, the “polyreactivity (PSR sort gate)” value is on record as “high polyreactivity”. To “QVQLVESGGGLVQAGGSLRLSCAASGFTFSRYTMGWYRQAPGKERELVAAINRRGGSTYYADSVKGRFTISRDNAKNTVYLQMNSLKPEDTAVYYCAAAVYLGRFGVILGYWGQGTQVTVSS” belongs “high polyreactivity”; to “QVQLVESGGGLVQAGGSLRLRCAASGSIFTDYAMGGYRQAPGKERELVAVIDIDGSTYYADSVKGRFTISRDNAKNTVYLQMNSLKPEDTAVYDCAAGYTYYSLYGYWGQGTQVTGSS”, “low polyreactivity”; to “QVQLVESGGGLVQAGGSLRLSCPASGSIFDPYAMGWYRQAPGKERELVAAITASGSSTYYADSVKGRFTISRDNAKNTVYLQMNSLKPEDTAVYYCAADRAKWEYLLSWLGYDYWGQGTQVTVSS”, “low polyreactivity”.
